Values of other authors as cited in article PMC4353500.

Assays:
[1] = biological target: Cavβ4b (UniProt D4A055)
[2] = biological target: Cavβ2a (UniProt Q08289)
Cavβ2a, sequence (Q08289 whole entry): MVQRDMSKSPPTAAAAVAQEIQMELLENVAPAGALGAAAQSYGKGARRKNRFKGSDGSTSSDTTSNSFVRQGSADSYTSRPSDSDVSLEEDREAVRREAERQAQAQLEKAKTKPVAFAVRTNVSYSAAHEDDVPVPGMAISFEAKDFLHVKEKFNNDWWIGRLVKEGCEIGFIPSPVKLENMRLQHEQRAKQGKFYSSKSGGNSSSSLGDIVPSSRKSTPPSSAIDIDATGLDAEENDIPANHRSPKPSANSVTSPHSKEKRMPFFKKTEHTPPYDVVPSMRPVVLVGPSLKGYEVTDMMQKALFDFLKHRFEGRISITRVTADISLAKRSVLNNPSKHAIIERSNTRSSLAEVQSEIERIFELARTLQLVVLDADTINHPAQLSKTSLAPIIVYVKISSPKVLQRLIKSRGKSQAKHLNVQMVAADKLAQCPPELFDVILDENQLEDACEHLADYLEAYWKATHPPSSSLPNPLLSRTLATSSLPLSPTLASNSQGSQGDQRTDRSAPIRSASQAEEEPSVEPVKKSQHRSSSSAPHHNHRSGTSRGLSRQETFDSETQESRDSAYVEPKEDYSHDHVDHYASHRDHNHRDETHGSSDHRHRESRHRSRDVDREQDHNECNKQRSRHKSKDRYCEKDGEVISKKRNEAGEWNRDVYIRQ

Kd [1]: 35 nM | Kd [2]: 35 nM
Substance: RIM1 CTD (from UniProt Q99NE5)
